Earlier results in PMC5401657.

Target: integrin αvβ3 (Homo sapiens) (UniProt P06756)
Assay: SPR

Sequence of UniProt P06756 (P06756 31-992, chain 1 of 2): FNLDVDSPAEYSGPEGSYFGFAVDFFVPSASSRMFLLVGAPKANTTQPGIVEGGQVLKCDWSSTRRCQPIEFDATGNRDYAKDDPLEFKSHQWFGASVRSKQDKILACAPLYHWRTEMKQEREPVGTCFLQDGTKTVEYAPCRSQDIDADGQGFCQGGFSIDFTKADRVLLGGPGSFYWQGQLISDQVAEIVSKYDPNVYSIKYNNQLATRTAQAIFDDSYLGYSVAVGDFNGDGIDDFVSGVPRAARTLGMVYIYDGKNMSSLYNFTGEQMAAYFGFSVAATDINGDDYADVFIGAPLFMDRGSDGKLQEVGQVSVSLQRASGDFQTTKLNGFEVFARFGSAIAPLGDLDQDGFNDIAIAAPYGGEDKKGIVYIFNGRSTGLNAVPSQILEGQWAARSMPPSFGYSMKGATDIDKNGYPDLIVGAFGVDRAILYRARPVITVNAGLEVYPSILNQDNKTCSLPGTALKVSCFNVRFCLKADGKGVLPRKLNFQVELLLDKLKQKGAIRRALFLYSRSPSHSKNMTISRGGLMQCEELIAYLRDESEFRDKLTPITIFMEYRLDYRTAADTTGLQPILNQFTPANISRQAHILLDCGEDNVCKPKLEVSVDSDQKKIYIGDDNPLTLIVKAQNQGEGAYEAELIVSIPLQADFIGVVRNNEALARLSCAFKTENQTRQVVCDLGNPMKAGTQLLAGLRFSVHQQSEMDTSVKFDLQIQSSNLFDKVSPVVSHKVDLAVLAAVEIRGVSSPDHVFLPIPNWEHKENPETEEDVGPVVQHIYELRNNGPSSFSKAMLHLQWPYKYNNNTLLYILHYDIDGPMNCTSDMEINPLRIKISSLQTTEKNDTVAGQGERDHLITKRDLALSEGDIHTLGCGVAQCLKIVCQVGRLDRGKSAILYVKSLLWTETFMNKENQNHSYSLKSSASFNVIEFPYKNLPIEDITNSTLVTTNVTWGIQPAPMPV
Sequence of UniProt P06756 (P05106 27-718, chain 2 of 2, further chain): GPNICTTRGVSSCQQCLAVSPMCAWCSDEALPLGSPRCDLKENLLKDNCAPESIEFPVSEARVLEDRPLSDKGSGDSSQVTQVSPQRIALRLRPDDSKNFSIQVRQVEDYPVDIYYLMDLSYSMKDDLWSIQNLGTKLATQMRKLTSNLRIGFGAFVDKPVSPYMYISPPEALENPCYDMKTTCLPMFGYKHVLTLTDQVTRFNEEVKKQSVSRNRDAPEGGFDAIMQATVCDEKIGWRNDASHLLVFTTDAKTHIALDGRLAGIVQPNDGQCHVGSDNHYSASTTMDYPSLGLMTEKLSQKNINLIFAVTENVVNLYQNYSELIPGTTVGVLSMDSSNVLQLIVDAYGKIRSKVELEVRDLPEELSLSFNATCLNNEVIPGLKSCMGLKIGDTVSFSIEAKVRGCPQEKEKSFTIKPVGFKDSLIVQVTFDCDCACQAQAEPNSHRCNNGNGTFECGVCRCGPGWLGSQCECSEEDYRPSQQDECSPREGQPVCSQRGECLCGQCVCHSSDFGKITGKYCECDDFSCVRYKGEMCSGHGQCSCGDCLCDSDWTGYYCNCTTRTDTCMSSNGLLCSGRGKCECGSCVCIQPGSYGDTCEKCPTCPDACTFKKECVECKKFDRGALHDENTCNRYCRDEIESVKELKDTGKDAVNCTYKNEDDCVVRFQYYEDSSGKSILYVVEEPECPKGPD

Kd: 500 nM
Substance: IGF1 (from UniProt P05019)
